Data as given in patent US20230183355A1 (UNIVERSITY OF WESTERN ONTARIO, published 2023).

B1: Exemplified Antibody 1 (antibody, human IgG4 S228P, kappa, F234A L235A, V domains shown)
VH: QVQLVQSGAEVKKPGASVKVSCKASGYTFTDYNMHWVRQAPGQGLEWMGYIYPYNGDTGYNQNFKSRVTMTRDTSTSTVYMELSSLRSEDTAVYYCARGLIYYGYLNVAMDSWGQGTLVTVSS
VL: DIQMTQSPSSLSASVGDRVTITCRASQSIGTRIHWYQQKPGKAPKLLIYFASESISGVPSRFSGSGSGTDFTLTISSLQPEDFATYYCQQSKIWPTTFGGGTKLEIKR
notes: Humanized antibody, full LC (kappa) and HC (IgG4)
B2: Exemplified Antibody 4 (antibody, human IgG4 S228P, kappa, F234A L235A, V domains shown)
VH: QVQLVQSGAEVKKPGASVKVSCKASGYTFYDYNMHWVRQAPGQGLEWMGYIYPYNGDTGYNQNFKSRVTMTRDTSTSTVYMELSSLRSEDTAVYYCARGLIHYGYLNVAMDSWGQGTLVTVSS
VL: DIQMTQSPSSLSASVGDRVTITCRASRSIGTRIHWYQQKPGKAPKLLIYFASGSISGVPSRFSGSGSGTDFTLTISSLQPEDFATYYCQQSKIFPTTFGGGTKLEIKR
notes: as for B1
B3: Exemplified Antibody 3 (antibody, human IgG4 S228P, kappa, F234A L235A, V domains shown)
VH: QVQLVQSGAEVKKPGASVKVSCKASGYTFTDYNMHWVRQAPGQGLEWMGYIYPYSGDTGYNQNFKSRVTMTRDTSTSTVYMELSSLRSEDTAVYYCARGLIYYGYLNVAMDSWGQGTLVTVSS
VL: DIQMTQSPSSLSASVGDRVTITCRASQSIGTRIHWYQQKPGKAPKLLIYFASESISGVPSRFSGSGSGTDFTLTISSLQPEDFATYYCQQSKIGPTTFGGGTKLEIKR
notes: as for B1
B4: Exemplified Antibody 2 (antibody, human IgG4 S228P, kappa, F234A L235A, V domains shown)
VH: QVQLVQSGAEVKKPGASVKVSCKASGYTFGDYNMHWVRQAPGQGLEWMGYIYPYNGDTGYNQNFKSRVTMTRDTSTSTVYMELSSLRSEDTAVYYCARGLVHYGYLNVAMDSWGQGTLVTVSS
VL: DIQMTQSPSSLSASVGDRVTITCRASRSIGTRIHWYQQKPGKAPKLLIYFASGSISGVPSRFSGSGSGTDFTLTISSLQPEDFATYYCQQSKIFPTTFGGGTKLEIKR
notes: as for B1
B5: Exemplified Antibody 5 (antibody, human IgG4 S228P, kappa, F234A L235A, V domains shown)
VH: QVQLVQSGAEVKKPGASVKVSCKASGYTFTDYNMHWVRQAPGQGLEWMGYIYPYSGDTGYNQNFKSRVTMTRDTSTSTVYMELSSLRSEDTAVYYCARGLIYYGYLNVAMDSWGQGTLVTVSS
VL: DIQMTQSPSSLSASVGDRVTITCRASESIGTRIHWYQQKPGKAPKLLIYFASESISGVPSRFSGSGSGTDFTLTISSLQPEDFATYYCQQSKIWPTTFGGGTKLEIKR
notes: as for B1

Experiments:
[1] = biological target: T1, human CD11d/CD18 expressed on JY cells (human, UniProt Q13349 18-1161; P05107 23-769); test: FACS on JY cells expressing human CD11d/CD18; non-linear regression, one-site binding model
T1 construct: whole, on cells
T1 sequence (Q13349 18-1161, chain 1 of 2): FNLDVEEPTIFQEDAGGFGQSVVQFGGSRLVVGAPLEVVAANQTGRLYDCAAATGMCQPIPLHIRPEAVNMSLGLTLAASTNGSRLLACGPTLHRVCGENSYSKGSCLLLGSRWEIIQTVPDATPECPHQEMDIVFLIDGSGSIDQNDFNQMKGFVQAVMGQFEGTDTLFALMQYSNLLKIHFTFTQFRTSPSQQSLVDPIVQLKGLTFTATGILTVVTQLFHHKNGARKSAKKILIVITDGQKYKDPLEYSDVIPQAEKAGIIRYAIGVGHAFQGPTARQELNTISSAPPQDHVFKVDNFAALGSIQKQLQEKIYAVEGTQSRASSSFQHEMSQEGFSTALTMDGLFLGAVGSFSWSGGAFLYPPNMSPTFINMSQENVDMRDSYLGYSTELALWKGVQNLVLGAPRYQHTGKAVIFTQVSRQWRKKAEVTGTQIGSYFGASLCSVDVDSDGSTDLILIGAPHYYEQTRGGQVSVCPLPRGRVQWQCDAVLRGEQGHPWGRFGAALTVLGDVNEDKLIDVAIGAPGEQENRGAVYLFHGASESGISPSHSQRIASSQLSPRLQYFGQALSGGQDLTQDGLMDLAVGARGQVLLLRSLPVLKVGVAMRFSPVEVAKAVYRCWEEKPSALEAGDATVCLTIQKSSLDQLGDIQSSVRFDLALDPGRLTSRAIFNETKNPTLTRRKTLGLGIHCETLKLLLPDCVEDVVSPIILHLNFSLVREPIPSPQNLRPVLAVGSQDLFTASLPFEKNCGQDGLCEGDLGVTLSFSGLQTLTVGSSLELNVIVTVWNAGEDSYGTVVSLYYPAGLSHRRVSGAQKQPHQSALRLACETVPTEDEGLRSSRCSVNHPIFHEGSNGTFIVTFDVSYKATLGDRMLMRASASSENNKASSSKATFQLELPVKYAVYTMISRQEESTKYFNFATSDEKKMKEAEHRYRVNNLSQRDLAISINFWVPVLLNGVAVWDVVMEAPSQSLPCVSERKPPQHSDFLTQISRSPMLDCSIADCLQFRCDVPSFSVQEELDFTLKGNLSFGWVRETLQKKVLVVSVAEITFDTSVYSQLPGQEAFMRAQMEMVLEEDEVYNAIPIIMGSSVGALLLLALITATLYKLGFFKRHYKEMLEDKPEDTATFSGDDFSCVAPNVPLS
T1 sequence (P05107 23-769, chain 2 of 2): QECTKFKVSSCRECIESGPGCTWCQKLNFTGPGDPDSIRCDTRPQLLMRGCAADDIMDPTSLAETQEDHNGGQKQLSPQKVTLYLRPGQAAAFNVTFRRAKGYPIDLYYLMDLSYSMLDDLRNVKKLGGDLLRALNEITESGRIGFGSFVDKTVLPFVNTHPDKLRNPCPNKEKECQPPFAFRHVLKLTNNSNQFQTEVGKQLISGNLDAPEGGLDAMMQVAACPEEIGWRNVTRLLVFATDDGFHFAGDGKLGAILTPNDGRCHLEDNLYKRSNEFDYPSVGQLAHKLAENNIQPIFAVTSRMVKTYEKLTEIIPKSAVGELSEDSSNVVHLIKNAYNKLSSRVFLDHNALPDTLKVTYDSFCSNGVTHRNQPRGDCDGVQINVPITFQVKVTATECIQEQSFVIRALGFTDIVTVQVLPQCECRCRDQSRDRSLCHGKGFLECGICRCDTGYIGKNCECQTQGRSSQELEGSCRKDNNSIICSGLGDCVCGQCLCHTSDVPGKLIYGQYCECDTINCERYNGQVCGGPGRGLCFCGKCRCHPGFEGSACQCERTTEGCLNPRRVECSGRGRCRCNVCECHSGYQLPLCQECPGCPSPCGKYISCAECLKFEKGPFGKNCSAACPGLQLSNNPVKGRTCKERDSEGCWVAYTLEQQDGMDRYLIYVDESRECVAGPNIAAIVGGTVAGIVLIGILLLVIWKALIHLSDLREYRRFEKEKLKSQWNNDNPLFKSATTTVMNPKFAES
Method: (§1) Binding affinity of the exemplified CD11d antibodies of Table 2 were determined, for both human and rat CD11d, by Fluorescence Activated Cell Sorting (FACS) analysis. JY cells expressing human CD11d/CD18 or JY cells transfected with full-length rat CD11d are suspended in FACS buffer with goat IgG (1 mg/ml). The cell solution is added to wells of 96-well round-bottom plates at a density of 4.0×10⁴ cells in 50 μL solution. Each of the exemplified CD11d antibodies of Table 2 (25 μL) or isotype control antibody (25 μL) is added to a respective well at 1:3 dilutions at final concentrations ranging between 4.6 ng/mL to 10 μg/mL. The plates are incubated on ice for 30 minutes, after which 200 μL of FACS buffer is added, plates are centrifuged at 2000 rpm for 3 minutes, and the liquid is discarded. Cells are re-suspended with 50 μL of a phycoerythrin-conjugated antibody (Jackson ImmunoResearch p/n. 709-116-149) at a 1:150 dilution and incubated on ice for 20 minutes. FACS buffer is added (200 μL) to each well and plates are spun at 2000 rpm for 3 minutes. The liquid is discarded, cells are washed with 200 μL FACS buffer, re-suspended in 120 μL of 1% paraformaldehyde in PBS, and transferred to 96-well flat-bottom plates.
(§2) Stained cells are analyzed by flow cytometry with the gate set on the isotype control antibody. The specific percent gated is calculated as [% gated (test antibody)−% gated (isotype control antibody)]. Kd determinations were made based on a non-linear regression, one-site binding model. Following procedures essentially as described above, binding affinities of the exemplified CD11d antibodies of Table 2 to human and rat CD11d were obtained.

[2] = biological target: T2, full-length rat CD11d on transfected JY cells (rat, UniProt Q9QYE7 20-1161); test: FACS on JY cells transfected with full-length rat CD11d; non-linear regression, one-site binding model
T2 construct: whole, on cells
T2 sequence (looked up): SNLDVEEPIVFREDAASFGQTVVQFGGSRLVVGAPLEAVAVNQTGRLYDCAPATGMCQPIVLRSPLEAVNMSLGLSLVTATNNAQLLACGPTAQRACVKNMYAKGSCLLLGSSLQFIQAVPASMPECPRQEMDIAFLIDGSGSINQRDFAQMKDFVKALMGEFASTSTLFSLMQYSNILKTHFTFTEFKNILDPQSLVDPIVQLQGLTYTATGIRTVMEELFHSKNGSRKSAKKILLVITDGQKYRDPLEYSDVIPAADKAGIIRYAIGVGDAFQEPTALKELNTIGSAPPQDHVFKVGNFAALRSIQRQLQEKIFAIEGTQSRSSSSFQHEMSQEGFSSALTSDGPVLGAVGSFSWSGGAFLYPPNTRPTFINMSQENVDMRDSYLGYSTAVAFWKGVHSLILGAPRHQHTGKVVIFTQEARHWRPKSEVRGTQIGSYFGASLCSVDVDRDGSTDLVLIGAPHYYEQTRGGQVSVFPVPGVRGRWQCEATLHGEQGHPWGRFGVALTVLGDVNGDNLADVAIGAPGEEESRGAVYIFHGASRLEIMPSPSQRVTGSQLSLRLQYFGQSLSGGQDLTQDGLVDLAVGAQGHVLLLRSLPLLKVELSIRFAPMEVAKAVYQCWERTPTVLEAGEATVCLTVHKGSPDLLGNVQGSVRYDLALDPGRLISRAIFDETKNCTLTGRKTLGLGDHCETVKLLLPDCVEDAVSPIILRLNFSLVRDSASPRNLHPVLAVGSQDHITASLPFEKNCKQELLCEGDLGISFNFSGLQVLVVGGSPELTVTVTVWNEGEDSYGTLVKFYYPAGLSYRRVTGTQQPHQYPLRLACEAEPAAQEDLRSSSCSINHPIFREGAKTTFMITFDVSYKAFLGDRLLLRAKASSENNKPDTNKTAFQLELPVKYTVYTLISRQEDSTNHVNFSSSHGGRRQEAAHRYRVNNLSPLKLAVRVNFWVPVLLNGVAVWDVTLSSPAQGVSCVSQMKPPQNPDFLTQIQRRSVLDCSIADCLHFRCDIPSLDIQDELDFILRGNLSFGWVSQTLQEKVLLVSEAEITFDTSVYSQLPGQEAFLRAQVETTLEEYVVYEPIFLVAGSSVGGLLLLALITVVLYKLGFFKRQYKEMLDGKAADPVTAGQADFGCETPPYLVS
Method: as §1, §2

| Binder | Kd [1] [nM] | Kd [2] [nM] |
| --- | --- | --- |
| B1 | 0.436 | 1.45 |
| B2 | 0.333 | 0.247 |
| B3 | 0.304 | 0.677 |
| B4 | 0.303 | 0.133 |
| B5 | 0.344 | 1.18 |
